The assay addresses Endogenous β-catenin of SW480 human colon carcinoma cells (human) (UniProt P35222). Description: cell-based or functional assay.

Sequence of Endogenous β-catenin of SW480 human colon carcinoma cells (human) (P35222 2-781): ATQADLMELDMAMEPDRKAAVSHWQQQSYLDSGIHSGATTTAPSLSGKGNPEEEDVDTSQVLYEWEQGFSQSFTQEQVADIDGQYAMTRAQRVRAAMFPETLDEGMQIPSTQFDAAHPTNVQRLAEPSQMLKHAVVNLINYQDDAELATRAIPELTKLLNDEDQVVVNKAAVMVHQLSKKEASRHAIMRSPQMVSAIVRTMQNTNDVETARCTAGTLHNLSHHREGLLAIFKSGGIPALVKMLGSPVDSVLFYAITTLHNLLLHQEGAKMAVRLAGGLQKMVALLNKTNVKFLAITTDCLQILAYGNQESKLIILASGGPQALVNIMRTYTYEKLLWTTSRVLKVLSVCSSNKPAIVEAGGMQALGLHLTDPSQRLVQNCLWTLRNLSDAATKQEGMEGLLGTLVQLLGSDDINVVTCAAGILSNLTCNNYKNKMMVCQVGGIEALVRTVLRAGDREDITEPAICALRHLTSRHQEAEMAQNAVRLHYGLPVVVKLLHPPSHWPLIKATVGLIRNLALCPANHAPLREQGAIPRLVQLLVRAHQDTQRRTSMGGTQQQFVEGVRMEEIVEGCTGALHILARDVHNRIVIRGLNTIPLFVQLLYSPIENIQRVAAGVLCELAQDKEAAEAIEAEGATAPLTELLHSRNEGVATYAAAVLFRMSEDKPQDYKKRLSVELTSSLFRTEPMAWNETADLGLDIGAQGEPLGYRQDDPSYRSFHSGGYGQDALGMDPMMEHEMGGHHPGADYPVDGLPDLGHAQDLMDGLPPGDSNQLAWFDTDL

On to “Cytoplasmic tail of mouse E-cadherin (amino acids 735-884) fused to the C-terminus of GFP (from UniProt P09803 720-869)”, for which the inhibition of luciferase activity (LEF-1-driven transactivation) in SW480 cells came to 75%.
Still for that read-out and setting: the figure for “GFP-E72 (C-terminal 72 amino acids of mouse E-cadherin, residues 813-884, fused to the C-terminus of GFP) (from UniProt P09803 798-869)” is 60%.
The substance “IL2R/N-cadherin chimera (extracellular and transmembrane domains of IL2Rα fused to the intracellular domain of N-cadherin, amino acids 752-912)” gave an inhibition of TOPFLASH-responsive transcription (luciferase) in SW480 cells of 50%.
“GFP-N71 (C-terminal 71 amino acids of N-cadherin, residues 842-912, fused to the C-terminus of GFP) (from UniProt B0KW95 836-906)” came in with an inhibition of luciferase activity (LEF-1-driven transactivation) in SW480 cells of 70%.
Same read-out and setting: as for “Cytoplasmic tail of N-cadherin (amino acids 752-912) fused to the C-terminus of GFP (from UniProt B2KI42 746-906)”, the figure is 80%.
